Test results as given in publication PMC3548508.
“And” between values parts separate entries of the source, which are not always exact repeats. Identical values can stand only once.

Assays:
[1] = biological target: Selenomethionine-containing TraMΔ as crystallised (TraM 194-322) (Enterococcus faecalis (conjugative plasmid pIP501)); assay: crystal structure
[2] = biological target: TraM C-terminal domain (TraM 190-322) from the Enterococcus faecalis conjugative plasmid pIP501 (Enterococcus faecalis (conjugative plasmid pIP501)); assay: cross-linking

“Selenomethionine-containing TraMΔ as crystallised (TraM 194-322) (domain or fragment)” showed a stoichiometry N [1] of 3.
With “TraM C-terminal domain (TraM 190-322) from the Enterococcus faecalis conjugative plasmid pIP501 (domain or fragment)” the stoichiometry N [2] was 2 and 3.
